In the supplement of paper PMC10567573:

B1: ATL3 (parent)
chain: HFKKTKKMGGKDFSFRYQQELEEE
B2: TSPAN10 (parent)
chain: EGCGPPLRRWLRANLAASGGYAIA
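Note: lentivirally expressed fusions sorted by FACS into six bins by GFP to DsRed ratio, PSI derived from sequencing read proportions per bin multiplied by bin number.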

Variants of: B1
Experiment: protein stability index of a GFP-peptide fusion (GPS, HEK-293T) (PSI 1-6); higher = more stable
Conditions: c terminus: a fixed tail appended
Work on D12M yielded a protein stability index of 1.46.
In the case of D12L, the protein stability index is reported as 2.67.
For D12E, the protein stability index was 2.34.
Work on D12V yielded a protein stability index of 2.7.
Variant D12N has a protein stability index of 2.1.
In the case of D12S, the protein stability index is reported as 2.65.
For D12Y, the protein stability index was 2.32.
D12T showed a protein stability index of 2.24.
Variant D12A has a protein stability index of 1.88.
H1S gave a protein stability index of 1.73.
Work on H1P yielded a protein stability index of 3.17.
Work on H1I yielded a protein stability index of 1.36.
H1W showed a protein stability index of 2.22.
H1K showed a protein stability index of 3.03.
In the case of H1F, the protein stability index is reported as 1.88.
For H1A, the protein stability index was 2.35.
H1T gave a protein stability index of 3.89.
For H1N, the protein stability index was 2.03.
With H1V the protein stability index was 2.26.
H1L showed a protein stability index of 1.65.
Variant H1M has a protein stability index of 2.32.
Variant Y17K has a protein stability index of 4.89.
Y17P showed a protein stability index of 4.68.
For Y17N, the protein stability index was 5.28.
For Y17E, the protein stability index was 5.02.
Y17V showed a protein stability index of 2.03.
Y17W gave a protein stability index of 2.61.
With Y17Q the protein stability index was 4.78.
With Y17M the protein stability index was 4.21.
Work on Y17S yielded a protein stability index of 3.14.
Y17D showed a protein stability index of 5.61.
Work on Y17R yielded a protein stability index of 5.25.
Variant Y17H has a protein stability index of 3.72.
In the case of Y17L, the protein stability index is reported as 2.1.
Variant Y17T has a protein stability index of 2.38.
For Y17G, the protein stability index was 4.68.
K11F showed a protein stability index of 1.24.
For K11A, the protein stability index was 2.69.
K11I gave a protein stability index of 2.27.
For K11W, the protein stability index was 1.78.
K11Q showed a protein stability index of 2.24.
For K11N, the protein stability index was 1.78.
K11C showed a protein stability index of 2.17.
K11T gave a protein stability index of 2.22.
With K11V the protein stability index was 2.39.
With K11S the protein stability index was 2.4.
K11E showed a protein stability index of 1.2.
With K11Y the protein stability index was 1.26.
In the case of K11P, the protein stability index is reported as 2.06.
For K11H, the protein stability index was 2.11.
Variant K6M has a protein stability index of 2.51.
With K6V the protein stability index was 2.46.
With K6C the protein stability index was 2.15.
For K6W, the protein stability index was 1.51.
With K6F the protein stability index was 3.58.
Variant K6Q has a protein stability index of 2.39.
With K6R the protein stability index was 1.99.
With K6Y the protein stability index was 2.38.
With K6H the protein stability index was 1.52.
Variant K6E has a protein stability index of 2.1.
Work on K6I yielded a protein stability index of 1.37.
Work on K6S yielded a protein stability index of 1.81.
In the case of K6N, the protein stability index is reported as 2.15.
K6A showed a protein stability index of 2.4.
Work on K6P yielded a protein stability index of 1.2.
With K6T the protein stability index was 1.96.
Variant F2H has a protein stability index of 1.62.
Variant F2I has a protein stability index of 2.65.
For F2R, the protein stability index was 2.64.
For F2Y, the protein stability index was 2.1.
Work on F2M yielded a protein stability index of 2.76.
With F2A the protein stability index was 1.48.
F2V gave a protein stability index of 2.62.
F2S showed a protein stability index of 1.91.
F2G gave a protein stability index of 1.4.
In the case of F2T, the protein stability index is reported as 1.87.
With F2C the protein stability index was 1.8.
Variant F2L has a protein stability index of 1.39.
Work on F2P yielded a protein stability index of 1.26.
Variant F2Q has a protein stability index of 3.05.
Variant F2D has a protein stability index of 2.65.
F2E showed a protein stability index of 1.09.
In the case of F2N, the protein stability index is reported as 2.28.
F13S showed a protein stability index of 4.83.
Variant F13A has a protein stability index of 5.27.
F13I gave a protein stability index of 4.91.
F13T showed a protein stability index of 4.97.
F13K showed a protein stability index of 4.09.
F13C gave a protein stability index of 4.74.
With F13M the protein stability index was 3.76.
For F13L, the protein stability index was 4.45.
F13E showed a protein stability index of 5.36.
Variant F13H has a protein stability index of 2.79.
F13Y gave a protein stability index of 2.75.
With F13N the protein stability index was 5.05.
Variant F13Q has a protein stability index of 5.21.
F13G gave a protein stability index of 5.01.
For F13P, the protein stability index was 4.29.
With F13D the protein stability index was 5.57.
For F13V, the protein stability index was 4.96.
For F13R, the protein stability index was 3.94.
Work on M8C yielded a protein stability index of 2.24.
M8I gave a protein stability index of 1.96.
In the case of M8Q, the protein stability index is reported as 2.21.
In the case of M8A, the protein stability index is reported as 2.39.
M8H gave a protein stability index of 2.29.
Work on M8P yielded a protein stability index of 1.92.
M8Y gave a protein stability index of 1.99.
With M8V the protein stability index was 1.64.
With M8S the protein stability index was 2.77.
With M8T the protein stability index was 2.63.
Work on M8E yielded a protein stability index of 2.72.
M8R showed a protein stability index of 2.81.
With M8F the protein stability index was 1.68.
Work on M8K yielded a protein stability index of 3.19.
M8W gave a protein stability index of 2.35.
In the case of M8D, the protein stability index is reported as 2.14.
Variant M8L has a protein stability index of 1.48.
With M8N the protein stability index was 2.4.
With M8G the protein stability index was 3.01.

Variants of: B2
Experiment: as above
Conditions: c terminus: a fixed tail appended
Work on G4P yielded a protein stability index of 2.04.
G20I showed a protein stability index of 1.49.
G20E gave a protein stability index of 2.33.
In the case of S18F, the protein stability index is reported as 2.57.
S18E gave a protein stability index of 1.75.
For L7T, the protein stability index was 2.97.
For L11H, the protein stability index was 2.94.
With L11G the protein stability index was 1.74.
L11Q showed a protein stability index of 3.13.
E1M showed a protein stability index of 2.45.
In the case of E1G, the protein stability index is reported as 2.
E1Y showed a protein stability index of 1.97.
Work on E1Q yielded a protein stability index of 1.38.
Variant E1N has a protein stability index of 1.96.
A22K showed a protein stability index of 1.75.
With A22S the protein stability index was 1.93.
Work on R12C yielded a protein stability index of 2.17.
In the case of R12E, the protein stability index is reported as 2.23.
With A16W the protein stability index was 1.45.
R9G showed a protein stability index of 1.25.
In the case of R9K, the protein stability index is reported as 1.79.
With R9M the protein stability index was 1.65.
Work on R9C yielded a protein stability index of 1.29.
For A24W, the protein stability index was 2.25.
Work on A24I yielded a protein stability index of 2.22.
Y21M showed a protein stability index of 2.17.
W10L gave a protein stability index of 2.42.
For A17K, the protein stability index was 1.7.
A17P showed a protein stability index of 1.81.
P5T showed a protein stability index of 2.05.
Variant P5S has a protein stability index of 1.44.
With P5N the protein stability index was 2.02.
For P5F, the protein stability index was 2.73.
A13S gave a protein stability index of 2.58.
With N14E the protein stability index was 1.47.
N14D gave a protein stability index of 1.86.
With R8C the protein stability index was 1.53.
Variant R8P has a protein stability index of 1.46.
Work on G19R yielded a protein stability index of 2.33.
In the case of G19E, the protein stability index is reported as 1.84.
Work on G2Y yielded a protein stability index of 1.69.
With G2A the protein stability index was 2.
Variant G2Q has a protein stability index of 2.33.
In the case of G2L, the protein stability index is reported as 1.57.
In the case of C3H, the protein stability index is reported as 2.62.
For P6K, the protein stability index was 1.97.
In the case of P6Y, the protein stability index is reported as 1.62.
